# B1: PRL-1: recombinant human PRL-1 (phosphatase of regenerating liver) wild type, C-terminal NCC motif (protein, UniProt Q93096 1-170, looked up)
# Protein tyrosine phosphatase …: MARMNRPAPVEVTYKNMRFLITHNPTNATLNKFIEELKKYGVTTIVRVCEATYDTTLVEKEGIHVLDWPFDDGAPPSNQIVDDWLSLVKIKFREEPGCCIAVHCVAGLGRAPVLVALALIEGGMKYEDAVQFIRQKRRGAFNSKQLLYLEKYRPKMRLRFKDSNGHRNNC
# B2: PRL-1-H166A: PRL-1 mutant, histidine 166 of the NGH motif replaced by alanine (protein, UniProt Q93096 1-170, looked up, variant H166A)
# Protein tyrosine phosphatase …: MARMNRPAPVEVTYKNMRFLITHNPTNATLNKFIEELKKYGVTTIVRVCEATYDTTLVEKEGIHVLDWPFDDGAPPSNQIVDDWLSLVKIKFREEPGCCIAVHCVAGLGRAPVLVALALIEGGMKYEDAVQFIRQKRRGAFNSKQLLYLEKYRPKMRLRFKDSNGARNNC
# B3: PRL-1-C170S: PRL-1 mutant, cysteine 170 replaced by serine (protein, UniProt Q93096 1-170, looked up, variant C170S)
# Protein tyrosine phosphatase …: MARMNRPAPVEVTYKNMRFLITHNPTNATLNKFIEELKKYGVTTIVRVCEATYDTTLVEKEGIHVLDWPFDDGAPPSNQIVDDWLSLVKIKFREEPGCCIAVHCVAGLGRAPVLVALALIEGGMKYEDAVQFIRQKRRGAFNSKQLLYLEKYRPKMRLRFKDSNGHRNNS
# B4: Apo PRL-1: PRL-1 without bound metal (protein, UniProt Q93096 1-170, looked up)
# Protein tyrosine phosphatase …: MARMNRPAPVEVTYKNMRFLITHNPTNATLNKFIEELKKYGVTTIVRVCEATYDTTLVEKEGIHVLDWPFDDGAPPSNQIVDDWLSLVKIKFREEPGCCIAVHCVAGLGRAPVLVALALIEGGMKYEDAVQFIRQKRRGAFNSKQLLYLEKYRPKMRLRFKDSNGHRNNC
# modifications: metal-free
# Assays:
# [1] = ICP-MS of metal bound to purified PRL-1 (Zn); format: binding
# Experimental: (§1) ICP-MS was used to characterize the bound metal. Purified protein samples were digested in concentrated nitric acid in PFA microcentrifuge tubes (Savillex, #s 7240, 7241) at 68±1° C. for 16.5±0.7 hours. Based on protein quantification prior to digestion, the sample was then diluted to 1.5 μM in 20 mM ammonium bicarbonate, pH 8.2, filtered through a 0.2 μm nylon filter, and injected into a VG Elemental VGII+XS Inductively-Coupled Plasma-Mass Spectrometer fitted with a microconcentric nebulizer. A minimum of two separately prepared samples were analyzed for each protein variant. Each sample was scanned twice and standards were run before, between, and after each sample scan. Drift was monitored during washes between scans of both sample and standard injections.
# To confirm that the chromophore arises from protein abstraction of the metal from the charged IMAC matrix, samples were subjected to ICP-MS for semi-quantitative analysis. […] On average 500 μM Ni-purified protein samples were digested in nitric acid for 16 h at 70° C. were determined to contain approximately 180 μM Ni, yielding a Ni to protein stoichiometry of 1:2.7+/−0.7. Zn was also detected in the Ni-purified samples at approximately 60 μM. […] Because ICP-MS analysis is conducted in a flow of Ar and the most abundant isotope of Ar has the same mass as Ca, Ca binding cannot be determined from the primary mass signal. […]
# [2] = Metal displacement from Ni-purified PRL-1 (EDTA exchange, guanidinium hydrochloride and heat); format: physicochemical
# Experimental: UV-Vis absorption spectra were used to measure the concentration of the PRL-1 protein. The concentrations of purified PRL-1 analogs were measured at 280 nm and calculated using an extinction coefficient of 19420 M^−1 cm^−1. Because of possible metal-protein absorption interferences in the high 200 nm region, the validity of the UV-Vis quantification method was confirmed by the Bradford method. Spectra of PRL-1 analogs at concentrations of 10, 5, 2.5, and 1.25 mg/mL were collected on a Cary 100 UV-Vis spectrophotometer from 800 to 200 nm. […] The resulting spectra were resolved and peak positions were evaluated using GRAMS/AI 7.00 software. Three methods were aimed at metal displacement. In the first, PRL-1-WT (e.g., wild type) samples were reduced using 20 mM β-mercaptoethanol (BME), and imidazole was added to a concentration of 10 mM. For 0.5 mM protein samples, this corresponds to 400-fold solution excess of BME to compete with the two C-terminal cysteine thiols and a 200-fold solution excess of imidazole to compete with the single C-terminal histidine imidazole side chain. New baselines were taken and the spectra recalculated. In the second method, baselines were recalculated for buffer containing 100 μM EDTA, and the spectrum for the PRL-1-WT sample that was exchanged ten million fold in 100 μM EDTA was recorded. Finally, 10 mg/mL protein samples were denatured in 5.6 M guanidinium hydrochloride and heated to 90° C., new baselines were taken, and the spectra were collected at 0, 2, 4 and 6 hrs.
# Ni binding in PRL-1 was not affected by reduction of the disulfide bond at PRL-1's active site. […] Subtraction of the reduced spectrum from the oxidized confirms that there was no significant difference in metal coordination between the reduced and oxidized WT samples. To examine whether a small contribution from a His is made, additional imidazole was added to the solution to increase the signal strength of a transient association. […] Additionally, no spectral change was observed when the Ni-purified sample was reduced in the presence of imidazole. […]
# [3] = ICP-MS of metal bound to purified PRL-1 variants (Ni); format: binding; conditions: for Ni bound, ICP-MS: PRL-1 variants purified on Ni-IMAC, analyzed in parallel
# Experimental: Because the histidine mutant retained tight binding, mutations at C170 and/or C171 were made.
# as §1
# To confirm that the chromophore arises from protein abstraction of the metal from the charged IMAC matrix, samples were subjected to ICP-MS for semi-quantitative analysis. As extensive washing is used to remove background metals, the values obtained from this method inherently underestimate the amount of metal bound, but can be used to assess the relative affinity of different metals for the protein. Additionally, to identify an endogenous metal ligand that may have been bound to PRL-1 during expression in the cells, ICP-MS was used to look for the presence of a transition metal from the first two rows in the periodic table as well as other common biologically relevant metals. […] On average 500 μM Ni-purified protein samples were digested in nitric acid for 16 h at 70° C. were determined to contain approximately 180 μM Ni, yielding a Ni to protein stoichiometry of 1:2.7+/−0.7. Zn was also detected in the Ni-purified samples at approximately 60 μM. […] Because ICP-MS analysis is conducted in a flow of Ar and the most abundant isotope of Ar has the same mass as Ca, Ca binding cannot be determined from the primary mass signal. Nonetheless, because a much higher amount of Ca was present in the cell culture media compared to Zn and yet the ICP-MS signal corresponds largely to zinc, the protein is unlikely to bind calcium.
# [4] = UV-Vis absorption spectroscopy of Ni coordination by PRL-1 variants; format: binding; conditions: relative to wild-type, Ni-purified
# Experimental: UV-Vis absorption spectra were used to measure the concentration of the PRL-1 protein. The concentrations of purified PRL-1 analogs were measured at 280 nm and calculated using an extinction coefficient of 19420 M^−1 cm^−1. Because of possible metal-protein absorption interferences in the high 200 nm region, the validity of the UV-Vis quantification method was confirmed by the Bradford method. Spectra of PRL-1 analogs at concentrations of 10, 5, 2.5, and 1.25 mg/mL were collected on a Cary 100 UV-Vis spectrophotometer from 800 to 200 nm. […] The resulting spectra were resolved and peak positions were evaluated using GRAMS/AI 7.00 software. Three methods were aimed at metal displacement. […] In the second method, baselines were recalculated for buffer containing 100 μM EDTA, and the spectrum for the PRL-1-WT sample that was exchanged ten million fold in 100 μM EDTA was recorded. […]
# Accordingly, characterization of metal coordination by PRL-1 was determined with UV-Vis absorption spectroscopy. The metal coordination geometry employed by PRL-1 and its mutants was analyzed using UV-Vis absorption spectroscopy at 800-200 nm. Absorption spectra of PRL-1 produced peaks at 280 and 220 nm, which arise from aromatic and peptide bonds within the protein and correspond well with the concentration determined using the Bradford assay. […]
# [5] = Solubility of PRL-1 on loss of metal; format: physicochemical; conditions: metal-free protein
molecule,measurement,setting,value
B1,"Zn detected in Ni-purified samples, ICP-MS",[1]; Ni-IMAC purified,approximately 60 μM
same,"Zn content after Zn-IMAC purification, ICP-MS",[1]; Zn-IMAC purified,270 µM
same,"loss of peaks at 318, 421 and 526 nm (Ni release)",[2]; 5.6 M guanidinium hydrochloride at 90° C.,only gradually disappeared over 6 hrs
same,reversibility of Ni binding,[2]; pH 7.4,irreversible
same,effect of EDTA exchange on the absorption spectrum,[2]; ten million-fold exchange into buffer containing 100 μM EDTA,little effect on the spectrum
same,"Ni bound, ICP-MS",[3],approximately 120 μM
same,"Ni level in Zn-IMAC purified protein, ICP-MS",[3]; Zn-IMAC purified,only background levels
same,"Ni content of Ni-purified protein samples, ICP-MS","[3]; on average 500 μM Ni-purified protein, digested in nitric acid 16 h at 70° C., semi-quantitative",approximately 180 μM
B2,decrease in signal measured by absorption spectroscopy,[4],20%
same,"Ni bound, ICP-MS",[3],~60 µM
B3,"Ni bound, ICP-MS",[3],No Ni was detected
B4,solubility,[5],poorly soluble

# — patent publication US20130018172A1, “Metal Abstraction Peptide and Uses Thereof” (Echogen, Inc., priority 2011, published 2013)
